Data: PMC10397247
Where two headings read alike, the source gives them in different places.

How the values were obtained:
[1] = biological target: T1, 4H607-bH; assay: two-hybrid library CCNG1;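 note: natural log of median RNA to DNA barcode read ratio; higher means stronger binding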
T1 chain: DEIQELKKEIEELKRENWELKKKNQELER

[2] = biological target: T2, 4H687-bH; assay: two-hybrid library CCNG1;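 note: natural log of median RNA to DNA barcode read ratio; higher means stronger binding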
T2 chain: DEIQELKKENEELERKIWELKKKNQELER

[3] = biological target: T3, 4H717-bH; assay: two-hybrid library CCNG1;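 note: natural log of median RNA to DNA barcode read ratio; higher means stronger binding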
T3 chain: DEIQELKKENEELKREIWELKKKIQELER

[4] = biological target: T4, 4H72-bH; assay: two-hybrid library CCNG1;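 note: natural log of median RNA to DNA barcode read ratio; higher means stronger binding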
T4 chain: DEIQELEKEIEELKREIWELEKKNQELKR

[5] = biological target: T5, 4H754-bH; assay: two-hybrid library CCNG1;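 note: natural log of median RNA to DNA barcode read ratio; higher means stronger binding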
T5 chain: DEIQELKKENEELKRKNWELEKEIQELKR

[6] = biological target: T6, 4H797-bH; assay: two-hybrid library CCNG1;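 note: natural log of median RNA to DNA barcode read ratio; higher means stronger binding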
T6 chain: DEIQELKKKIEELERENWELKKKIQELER

[7] = biological target: T7, 4H883-bH; assay: two-hybrid library CCNG1
T7 chain: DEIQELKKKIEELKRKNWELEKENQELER

[8] = biological target: T8, 4H908-bH; assay: two-hybrid library CCNG1
T8 chain: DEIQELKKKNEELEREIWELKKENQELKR

[9] = biological target: T9, 4H918-bH; assay: two-hybrid library CCNG1
T9 chain: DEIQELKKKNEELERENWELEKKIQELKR

[10] = biological target: T10, 4H953-bH; assay: two-hybrid library CCNG1
T10 chain: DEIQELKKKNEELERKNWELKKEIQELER

[11] = biological target: T11, 4H967-bH; assay: two-hybrid library CCNG1
T11 chain: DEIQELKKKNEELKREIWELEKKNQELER

[12] = biological target: T12, 4H3619-AA; assay: two-hybrid library CCmax
T12 chain: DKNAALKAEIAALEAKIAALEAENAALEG

[13] = biological target: T13, 4H3629-AA; assay: two-hybrid library CCmax; conditions: mean of both orientations
T13 chain: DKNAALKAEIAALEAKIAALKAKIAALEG

[14] = biological target: T14, 4H3777-AA; assay: two-hybrid library CCmax; conditions: mean of both orientations
T14 chain: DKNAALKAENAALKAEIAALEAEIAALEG

[15] = biological target: T15, 4H380-AA; assay: two-hybrid library CCmax; conditions: mean of both orientations
T15 chain: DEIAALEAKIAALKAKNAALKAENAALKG

[16] = biological target: T16, 4H3915-AA; assay: two-hybrid library CCmax; conditions: mean of both orientations
T16 chain: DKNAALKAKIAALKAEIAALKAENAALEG

[17] = biological target: T17, 4H3974-AA; assay: two-hybrid library CCmax; conditions: mean of both orientations
T17 chain: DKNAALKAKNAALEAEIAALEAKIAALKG

[18] = biological target: T18, 4H432-AA; assay: two-hybrid library CCmax; conditions: mean of both orientations
T18 chain: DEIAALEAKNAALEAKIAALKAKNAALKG

[19] = biological target: T19, 4H446-AA; assay: two-hybrid library CCmax; conditions: mean of both orientations
T19 chain: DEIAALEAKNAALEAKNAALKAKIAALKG

[20] = biological target: T20, 4H63-AA; assay: two-hybrid library CCmax; conditions: mean of both orientations
T20 chain: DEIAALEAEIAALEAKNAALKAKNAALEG

[21] = biological target: T21, 4H3591-AA; assay: two-hybrid library CCmax
T21 chain: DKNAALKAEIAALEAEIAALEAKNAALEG

[22] = biological target: T22, 4H3628-AA; assay: two-hybrid library CCmax
T22 chain: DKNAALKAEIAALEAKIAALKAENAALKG

[23] = biological target: T23, 4H3666-AA; assay: two-hybrid library CCmax; conditions: mean of both orientations
T23 chain: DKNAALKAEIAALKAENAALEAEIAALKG

[24] = biological target: T24, 4H3709-AA; assay: two-hybrid library CCmax; conditions: mean of both orientations
T24 chain: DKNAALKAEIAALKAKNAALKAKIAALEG

[25] = biological target: T25, 4H391-AA; assay: two-hybrid library CCmax; conditions: mean of both orientations
T25 chain: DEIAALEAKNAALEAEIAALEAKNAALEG

[26] = biological target: T26, 4H3920-AA; assay: two-hybrid library CCmax; conditions: mean of both orientations
T26 chain: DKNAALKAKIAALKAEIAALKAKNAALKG

[27] = biological target: T27, 4H3939-AA; assay: two-hybrid library CCmax; conditions: mean of both orientations
T27 chain: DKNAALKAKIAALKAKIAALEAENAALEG

[28] = biological target: T28, 4H428-AA; assay: two-hybrid library CCmax; conditions: mean of both orientations
T28 chain: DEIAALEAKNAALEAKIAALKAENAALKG

[29] = biological target: T29, 4H478-AA; assay: two-hybrid library CCmax; conditions: mean of both orientations
T29 chain: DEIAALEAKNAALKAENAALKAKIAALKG

[30] = biological target: T30, 4H497-AA; assay: two-hybrid library CCmax; conditions: mean of both orientations
T30 chain: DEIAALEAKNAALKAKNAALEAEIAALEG

[31] = biological target: T31, 4H656-AA; assay: two-hybrid library CCmax; conditions: mean of both orientations
T31 chain: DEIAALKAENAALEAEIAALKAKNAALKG

[32] = biological target: T32, 4H675-AA; assay: two-hybrid library CCmax
T32 chain: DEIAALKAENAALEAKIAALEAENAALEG

[33] = biological target: T33, 4H971-AA; assay: two-hybrid library CCmax; conditions: mean of both orientations
T33 chain: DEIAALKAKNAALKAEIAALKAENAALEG

[34] = biological target: T34, 4H932-bA; assay: two-hybrid library CCNG1
T34 chain: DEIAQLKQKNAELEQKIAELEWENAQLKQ

[35] = biological target: T35, 4H968-bH; assay: two-hybrid library CCNG1
T35 chain: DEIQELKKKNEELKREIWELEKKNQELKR

[36] = biological target: T36, 4H568-bH; assay: two-hybrid library CCNG1
T36 chain: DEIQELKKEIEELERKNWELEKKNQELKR

[37] = biological target: T37, APC8910-AA; assay: two-hybrid library CCmax
T37 chain: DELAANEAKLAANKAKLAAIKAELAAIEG

[38] = biological target: T38, APC9096-AA; assay: two-hybrid library CCmax; conditions: mean of both orientations
T38 chain: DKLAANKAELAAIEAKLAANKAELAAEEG

[39] = biological target: T39, APC9319-AA; assay: two-hybrid library CCmax; conditions: mean of both orientations
T39 chain: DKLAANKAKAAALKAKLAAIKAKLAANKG

[40] = biological target: T40, 4H883-bN; assay: two-hybrid library CCNG1
T40 chain: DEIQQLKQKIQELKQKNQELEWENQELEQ

[41] = biological target: T41, 4H340-AA; assay: two-hybrid library CCmax
T41 chain: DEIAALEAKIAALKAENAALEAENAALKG

[42] = biological target: T42, 4H3413-AA; assay: two-hybrid library CCmax; conditions: mean of both orientations
T42 chain: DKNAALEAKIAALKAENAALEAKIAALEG

[43] = biological target: T43, 4H3588-AA; assay: two-hybrid library CCmax; conditions: mean of both orientations
T43 chain: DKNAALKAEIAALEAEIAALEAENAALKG

[44] = biological target: T44, 4H3606-AA; assay: two-hybrid library CCmax; conditions: mean of both orientations
T44 chain: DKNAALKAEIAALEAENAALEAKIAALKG

[45] = biological target: T45, 4H3631-AA; assay: two-hybrid library CCmax; conditions: mean of both orientations
T45 chain: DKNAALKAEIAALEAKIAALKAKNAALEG

[46] = biological target: T46, 4H3697-AA; assay: two-hybrid library CCmax; conditions: mean of both orientations
T46 chain: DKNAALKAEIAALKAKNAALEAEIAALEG

[47] = biological target: T47, 4H3718-AA; assay: two-hybrid library CCmax; conditions: mean of both orientations
T47 chain: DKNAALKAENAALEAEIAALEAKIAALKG

[48] = biological target: T48, 4H384-AA; assay: two-hybrid library CCmax; conditions: mean of both orientations
T48 chain: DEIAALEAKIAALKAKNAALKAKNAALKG

[49] = biological target: T49, 4H3865-AA; assay: two-hybrid library CCmax; conditions: mean of both orientations
T49 chain: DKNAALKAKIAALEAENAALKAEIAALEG

[50] = biological target: T50, 4H697-AA; assay: two-hybrid library CCmax; conditions: mean of both orientations
T50 chain: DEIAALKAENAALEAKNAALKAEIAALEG

[51] = biological target: T51, 4H982-AA; assay: two-hybrid library CCmax; conditions: mean of both orientations
T51 chain: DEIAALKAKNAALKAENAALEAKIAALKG

[52] = biological target: T52, 4H87-AA; assay: two-hybrid library CCmax
T52 chain: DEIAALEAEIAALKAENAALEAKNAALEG

[53] = biological target: T53, 4H949-bH; assay: two-hybrid library CCNG1
T53 chain: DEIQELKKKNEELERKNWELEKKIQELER

DEIQELKKEIEELKRENWELKKKNQELER [4H607-bH]
interaction score [1]: 0.163 | interaction score [2]: -0.72 | interaction score [3]: 0.512 | interaction score [4]: -1.24 | interaction score [5]: -0.342 | interaction score [6]: -1.49 | interaction score [7]: 0.522 | interaction score [8]: -1.04 | interaction score [9]: -0.801 | interaction score [10]: -0.825 | interaction score [11]: -2

DKNAALKAEIAALEAKIAALEAENAALEG [4H3619-AA]
interaction score [12]: -1.28 | interaction score [13]: 0.411 | interaction score [14]: -1.36 | interaction score [15]: -0.137 | interaction score [16]: -0.429 | interaction score [17]: -0.337 | interaction score [18]: -0.708 | interaction score [19]: -1.21 | interaction score [20]: -0.357

DKNAALKAEIAALEAEIAALEAKNAALEG [4H3591-AA]
interaction score [21]: -1.51 | interaction score ([22]; mean of both orientations): -0.555 | interaction score [23]: -1.67 | interaction score [24]: -0.696 | interaction score [25]: -2.02 | interaction score [26]: 0.759 | interaction score [27]: 1.03 | interaction score [28]: -1.03 | interaction score [29]: -1.53 | interaction score [30]: -1.86 | interaction score [31]: -0.984 | interaction score [32]: -1.63 | interaction score [33]: -1.24

DKNAALKAEIAALEAKIAALKAENAALKG [4H3628-AA]
interaction score [22]: 0.286 | interaction score [23]: -1.56 | interaction score [24]: -1.58 | interaction score [25]: -1.27 | interaction score [26]: 0.724 | interaction score [27]: 0.744 | interaction score [28]: -0.847 | interaction score [29]: -2.19 | interaction score [30]: -1.67 | interaction score [31]: -1.43 | interaction score ([32]; mean of both orientations): -1.51 | interaction score [33]: -1.01

DEIQELKKKNEELERENWELEKKIQELKR [4H918-bH]
interaction score [9]: 1.26 | interaction score [34]: -1.28 | interaction score [10]: -0.806 | interaction score [11]: -0.25 | interaction score [35]: -0.174

DEIQELKKEIEELERKNWELEKKNQELKR [4H568-bH]
interaction score [36]: -1.25 | interaction score [1]: 0.0933 | interaction score [2]: -0.423 | interaction score [3]: 0.643 | interaction score [4]: -1.52 | interaction score [5]: 0.644 | interaction score [6]: -0.219 | interaction score [7]: 1 | interaction score [8]: 0.115 | interaction score [9]: -0.673 | interaction score [10]: -1.24 | interaction score [11]: 0.179

DELAANEAKLAANKAKLAAIKAELAAIEG [APC8910-AA]
interaction score [37]: -2.88 | interaction score [38]: -2.09 | interaction score [39]: -2.07

DEIQELKKENEELKREIWELKKKIQELER [4H717-bH]
interaction score [3]: 0.358 | interaction score [4]: -0.629 | interaction score [5]: 0.538 | interaction score [6]: -1.17 | interaction score [7]: -0.589 | interaction score [40]: -0.103 | interaction score [8]: -1.59 | interaction score [9]: 0.0812 | interaction score [10]: -0.135 | interaction score [11]: -0.767

DEIAALEAKIAALKAENAALEAENAALKG [4H340-AA]
interaction score [41]: 0.807 | interaction score [42]: -1.52 | interaction score [43]: -0.126 | interaction score [44]: -0.46 | interaction score [45]: -0.0653 | interaction score [46]: -1.98 | interaction score [47]: -0.983 | interaction score [48]: 1.51 | interaction score [49]: -1.26 | interaction score [50]: -1.32 | interaction score [51]: -1.24

DEIAALEAEIAALKAENAALEAKNAALEG [4H87-AA]
interaction score [52]: -0.571

DEIQELKKKNEELERKNWELEKKIQELER [4H949-bH]
interaction score [53]: 0.634
